The values below come from patent US20220144956A1 (Xencor, published 2022).

A word on the Kd: it is the concentration at which binding is half-saturated. Low values mean higher affinity, high ones lower affinity.

In assay [1] the target is T1, His-tagged human CD5 antigen (human, UniProt P06127 25-372, limits assumed).
T1 construct: not shown: His tag
T1 sequence (looked up): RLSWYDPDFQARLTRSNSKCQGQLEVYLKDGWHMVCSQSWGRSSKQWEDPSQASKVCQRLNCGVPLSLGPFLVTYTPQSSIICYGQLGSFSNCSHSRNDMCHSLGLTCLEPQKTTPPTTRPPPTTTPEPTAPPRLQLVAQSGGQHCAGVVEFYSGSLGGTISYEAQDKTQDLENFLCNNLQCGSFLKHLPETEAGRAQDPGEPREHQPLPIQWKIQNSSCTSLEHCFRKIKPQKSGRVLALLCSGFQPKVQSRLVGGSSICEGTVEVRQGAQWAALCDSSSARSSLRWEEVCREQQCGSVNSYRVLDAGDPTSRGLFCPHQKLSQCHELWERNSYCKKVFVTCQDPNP
The experiment in a line: method not stated; the filing prints 'TGFßRII' but the sentence is about restoring the CD5 affinity of Cd5-B VH variants, so the target is taken as CD5.

For assay [2], the target named is T2, His-tagged cynomolgus CD5 antigen (cynomolgus monkey).
T2 construct: also called cyno CD5
The assay is described as above.

Assay [3] deals with T3, human TGFßRII on human PBMCs / T cells (human, UniProt P37173 23-567).
T3 construct: whole, on cells; also called cell-surface TGFßRII; TGFßR2
T3 sequence (P37173 23-567): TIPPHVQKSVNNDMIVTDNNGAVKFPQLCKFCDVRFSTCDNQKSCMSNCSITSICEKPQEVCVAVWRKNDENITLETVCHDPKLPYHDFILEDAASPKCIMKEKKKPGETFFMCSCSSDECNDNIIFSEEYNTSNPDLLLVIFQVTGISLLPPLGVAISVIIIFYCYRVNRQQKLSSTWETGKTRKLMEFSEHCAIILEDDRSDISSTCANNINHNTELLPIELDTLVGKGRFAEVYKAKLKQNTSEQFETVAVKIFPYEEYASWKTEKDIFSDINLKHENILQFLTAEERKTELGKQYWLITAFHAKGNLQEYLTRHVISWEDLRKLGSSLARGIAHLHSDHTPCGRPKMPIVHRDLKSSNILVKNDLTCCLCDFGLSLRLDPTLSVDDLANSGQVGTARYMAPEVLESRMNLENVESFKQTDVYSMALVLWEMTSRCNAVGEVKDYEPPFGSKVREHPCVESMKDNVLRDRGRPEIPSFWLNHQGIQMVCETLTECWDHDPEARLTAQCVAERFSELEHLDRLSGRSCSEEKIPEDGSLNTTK
The experiment in a line: flow cytometry, Alexa647-labeled mAb on anti-CD3 activated human PBMCs. On the technique in general: In flow cytometry, cells or beads pass a laser one at a time.

The target in assay [4] is T4, human CD5 on human PBMCs / T cells (human, UniProt P06127 25-495).
T4 construct: whole, on cells
T4 sequence (looked up): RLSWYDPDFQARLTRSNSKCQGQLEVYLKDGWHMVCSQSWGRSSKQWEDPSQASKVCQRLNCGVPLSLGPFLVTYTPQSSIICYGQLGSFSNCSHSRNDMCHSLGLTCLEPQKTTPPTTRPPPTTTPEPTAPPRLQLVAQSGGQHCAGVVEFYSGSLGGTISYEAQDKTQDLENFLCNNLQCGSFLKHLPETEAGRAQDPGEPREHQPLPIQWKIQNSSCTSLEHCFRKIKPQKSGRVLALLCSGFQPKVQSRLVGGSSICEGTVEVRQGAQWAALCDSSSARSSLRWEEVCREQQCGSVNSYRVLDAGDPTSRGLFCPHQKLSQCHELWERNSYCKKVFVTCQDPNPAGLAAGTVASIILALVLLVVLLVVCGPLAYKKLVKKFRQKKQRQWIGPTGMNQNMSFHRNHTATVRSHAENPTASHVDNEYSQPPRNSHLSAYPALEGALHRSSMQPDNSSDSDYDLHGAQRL
The experiment in a line: flow cytometry on unstimulated human PBMCs, anti-human Fc Alexa647 secondary. The method, then: Next, cell binding of the bispecific antibodies were investigated. Unstimulated PBMCs were incubated with the indicated dose of bispecific antibodies for 1 hour on ice and washed. Next, the PBMCs were stained with goat anti-human Fc secondary antibody conjugated to Alexa647 (to assess binding of the bispecific antibodies) and antibodies against cell surface antigens (to define T cell populations) for 40 minutes on ice. Finally, the cells were analyzed by flow cytometry.

B1: Cd5-B H2L1 (further humanized variant of Cd5-B) (antibody, V domains shown)
VH: QVQLVQSGAEVKKPGASVKVSCKASGYSFTSYWMNWVRQAPGQGLEWMGMIHPSDSETRYNQKFQGRVTMTVDKSTSTAYMELSSLRSEDTAVYYCARWGDHDDAMDFWGQGTMVTVSS
VL: DIVLTQSPSSLSASVGDRVTITCRPSENIYGYFAWYQQKPGKSPKLLVYNAKTLAEGVPSRFSGSGSGTDFTLTISSLQPEDFATYYCQHHYGTPFTFGPGTKVEIK
In the case of B1, the Kd in assay [1] was 2 nM; in assay [2] it was 0.3 nM.

B2: Cd5-B H1.23_L1 (further humanized variant of Cd5-B) (antibody, V domains shown)
VH: EVQLVQSGAEVKKPGESLKISCKASGYSFTSYWMNWVRQMPGKGLEWMGMIYPSDSETRYNQSFQGQVTISVDKSISTAYLQWSSLKASDTAMYYCARWGDHDDAMDFWGQGTMVTVSS
VL: DIVLTQSPSSLSASVGDRVTITCRPSENIYGYFAWYQQKPGKSPKLLVYNAKTLAEGVPSRFSGSGSGTDFTLTISSLQPEDFATYYCQHHYGTPFTFGPGTKVEIK
Take B2: the dissociation constant (Kd) in assay [1] came out at 4 nM; in assay [2], 3 nM.

B3: Cd5-B H1.36_L1 (further humanized variant of Cd5-B) (antibody, V domains shown)
VH: EVQLVQSGAEVKKPGESLKISCKASGYSFTSYWMNWVRQMPGKGLEWMGMIHPSDSETRYNQKFQGQVTISVDKSISTAYLQWSSLKASDTAMYYCARWGDHDDAMDFWGQGTMVTVSS
VL: DIVLTQSPSSLSASVGDRVTITCRPSENIYGYFAWYQQKPGKSPKLLVYNAKTLAEGVPSRFSGSGSGTDFTLTISSLQPEDFATYYCQHHYGTPFTFGPGTKVEIK
On to B3, for which the Kd in assay [1] was 4 nM; in assay [2] it was 2 nM.

B4: XENP33038 (antibody, human IgG1, kappa, V domains shown)
VH: EVQLVESGGGLVKPGGSLRLSCAASGFTFSSFSMNWVRQAPGKGLEWVSSISSSSSYIYYTDSVKGRFTISRDNAKNSLYLQMNSLRAEDTAVYYCARGYWGFDYWGQGTLVTVSS
VL: DIQMTQSPSSLSASVGDRVTITCRASQGIRNDLGWYQQKPGKAPKRLIYAASSLQSGVPSRFSGSASGTEFTLTISSLQPEDFATYYCLQHNSNPLTFGGGTKVEIKR
modifications: Antibody labeled with Alexa647 in the assay; attachment sites not stated.
notes: labeled with Alexa647; also called illustrative anti-TGFßRII mAb XENP33038; copies: 2 + 2
As for B4, the binding result in assay [3] is given as “binds”.

B5: XENP35399 (bispecific antibody, human IgG1, kappa)
heavy: EVQLVESGGGVVQPGRSLRLSCTFSGFSLSTSGMGVGWIRQAPGKGLEWVAHIWWDDDVYYNPSLKSRLTITKDASTDTVYMELSSLRSEDTAVYYCVRRRATGTGFDYWGQGTLVTVSSASTKGPSVFPLAPSSKSTSGGTAALGCLVKDYFPEPVTVSWNSGALTSGVHTFPAVLQSSGLYSLSSVVTVPSSSLGTQTYICNVNHKPSDTKVDKKVEPKSCDKTHTCPPCPAPPVAGPSVFLFPPKPKDTLMISRTPEVTCVVVDVKHEDPEVKFNWYVDGVEVHNAKTKPREEEYNSTYRVVSVLTVLHQDWLNGKEYKCKVSNKALPAPIEKTISKAKGQPREPQVYTLPPSREEMTKNQVSLTCDVSGFYPSDIAVEWESDGQPENNYKTTPPVLDSDGSFFLYSKLTVDKSRWEQGDVFSCSVMHEALHNHYTQKSLSLSPGK
scFv-Fc: QLQVQESGPGLVKPSETLSLTCTVSGGSISNSYFSWGWIRQPPGKGLEWIGSFYYGEKTYYNPSLKSRATISIDTSKSQFSLKLSSVTAADTAVYYCPRGPTVIRGVIDSWGQGTLVTVSSGKPGSGKPGSGKPGSGKPGSEIVLTQSPATLSLSPGERATLSCRASQSVRSYLAWYQQKPGQAPRLLIYDASNRATGIPARFSGSGSGTDFTLTISSLEPEDFAVYYCQQRSNWPPTFGQGTKVEIKEPKSSDKTHTCPPCPAPPVAGPSVFLFPPKPKDTLMISRTPEVTCVVVDVKHEDPEVKFNWYVDGVEVHNAKTKPREEQYNSTYRVVSVLTVLHQDWLNGKEYKCKVSNKALPAPIEKTISKAKGQPREPQVYTLPPSREQMTKNQVKLTCLVKGFYPSDIAVEWESNGQPENNYKTTPPVLDSDGSFFLYSKLTVDKSRWQQGNVFSCSVMHEALHNHYTQKSLSLSPGK
light: NIVMTQSPSSLSASVGDRVTITCQASQDVGTAVAWYQQKPDQSPKLLIYWTSTRHTGVPDRFTGSGSGTDFTLTISSLQPEDIATYFCHQYNSYNTFGSGTKLEIKRTVAAPSVFIFPPSDEQLKSGTASVVCLLNNFYPREAKVQWKVDNALQSGNSQESVTEQDSKDSTYSLSSTLTLSKADYEKHKVYACEVTHQGLSSPVTKSFNRGEC
notes: also called prototype anti-TGFßRII×anti-CD5 bsAb having CD5-targeting arm based on clone 5D7; αTGFßRII×αCD5
Consider B5, for which the binding result in assay [4] is recorded as “binds”.

B6: XENP37388 (bispecific antibody, human IgG1, kappa)
heavy: QVTLKESGAELVRPGASVKLSCKASGYSFTSYWMNWVKQRPGQGLEWIGMIHPSDSETRLNQKFKDKATLTVDKSSSTAYMQLSSPTSEDSAVYYCARWGDHDDAMDFWGQGTMVTVSSASTKGPSVFPLAPSSKSTSGGTAALGCLVKDYFPEPVTVSWNSGALTSGVHTFPAVLQSSGLYSLSSVVTVPSSSLGTQTYICNVNHKPSDTKVDKKVEPKSCDKTHTCPPCPAPPVAGPSVFLFPPKPKDTLMISRTPEVTCVVVDVKHEDPEVKFNWYVDGVEVHNAKTKPREEEYNSTYRVVSVLTVLHQDWLNGKEYKCKVSNKALPAPIEKTISKAKGQPREPQVYTLPPSREEMTKNQVSLTCDVSGFYPSDIAVEWESDGQPENNYKTTPPVLDSDGSFFLYSKLTVDKSRWEQGDVFSCSVMHEALHNHYTQKSLSLSPGK
scFv-Fc: QLQVQESGPGLVKPSETLSLTCTVSGGSISNSYFSWGWIRQPPGKGLEWIGSFYYGEKTYYNPSLKSRATISIDTSKSQFSLKLSSVTAADTAVYYCPRGPTVIRGVIDSWGQGTLVTVSSGKPGSGKPGSGKPGSGKPGSEIVLTQSPATLSLSPGERATLSCRASQSVRSYLAWYQQKPGQAPRLLIYDASNRATGIPARFSGSGSGTDFTLTISSLEPEDFAVYYCQQRSNWPPTFGQGTKVEIKEPKSSDKTHTCPPCPAPPVAGPSVFLFPPKPKDTLMISRTPEVTCVVVDVKHEDPEVKFNWYVDGVEVHNAKTKPREEQYNSTYRVVSVLTVLHQDWLNGKEYKCKVSNKALPAPIEKTISKAKGQPREPQVYTLPPSREQMTKNQVKLTCLVKGFYPSDIAVEWESNGQPENNYKTTPPVLDSDGSFFLYSKLTVDKSRWQQGNVFSCSVMHEALHNHYTQKSLSLSPGK
light: DIVLTQSPASLSASVGESVTITCRPSENIYGYFAWYQQRQGKSPQLLVYNAKTLAEGVPSRFSGSGSGTHFSLKINSLQPEDFGTYYCQHHYGTPFTFGPGTKVDIKRTVAAPSVFIFPPSDEQLKSGTASVVCLLNNFYPREAKVQWKVDNALQSGNSQESVTEQDSKDSTYSLSSTLTLSKADYEKHKVYACEVTHQGLSSPVTKSFNRGEC
notes: also called anti-TGFßRII×anti-CD5 bsAb based on Cd5-B (by the order of the sentence)
Regarding B6, the binding result in assay [4] is given as “binds”.

B7: XENP28297 (antibody, human IgG1, kappa, V domains shown)
VH: QLQVQESGPGLVKPSETLSLTCTVSGGSISNSYFSWGWIRQPPGKGLEWIGSFYYGEKTYYNPSLKSRATISIDTSKSQFSLKLSSVTAADTAVYYCPRGPTVIRGVIDSWGQGTLVTVSS
VL: EIVLTQSPATLSLSPGERATLSCRASQSVRSYLAWYQQKPGQAPRLLIYDASNRATGIPARFSGSGSGTDFTLTISSLEPEDFAVYYCQQRSNWPPTFGQGTKVEIKR
modifications: The antibody was labeled with Alexa647 in the cell-binding assay. The dye position is not stated.
notes: also called bivalent anti-TGFßRII mAb based on TBRII-A; copies: 2 + 2
Regarding B7, in assay [3], the binding result is listed as “binds”.
